In patent US20240092918A1 (Novartis, published 2024):
Values belong to the binder of their own block, whether it stands above or below them.

Experiments:
Human CCR7 [1] = biological target: T1, Human CCR7 (human, UniProt P32248 25-378); assay: FACS competition on DEL cells (CCR7+), antibody titrated up to 100 nM applied together with the competitor CCL19 kept at 1 uM (panel 'ligand 1uM'), detection anti-hFc.PE, MFI [panel ligand 1uM]
T1 construct: also called hCCR7; NIH3T3.hCCR7
T1 sequence: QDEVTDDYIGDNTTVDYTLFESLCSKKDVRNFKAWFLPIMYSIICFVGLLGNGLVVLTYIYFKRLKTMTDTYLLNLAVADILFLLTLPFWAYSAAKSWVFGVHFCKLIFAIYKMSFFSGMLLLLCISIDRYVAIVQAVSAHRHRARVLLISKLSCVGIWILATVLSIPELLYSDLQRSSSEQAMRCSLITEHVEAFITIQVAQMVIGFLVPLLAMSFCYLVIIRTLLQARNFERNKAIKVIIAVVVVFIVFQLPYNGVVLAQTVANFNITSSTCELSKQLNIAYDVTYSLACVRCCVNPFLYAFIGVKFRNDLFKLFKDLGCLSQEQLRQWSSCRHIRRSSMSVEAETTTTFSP

Human CCR7 [2] = biological target: T1, Human CCR7; assay: cell-based or functional assay
[3] = biological target: T2, recombinant CCR7 (Origene #TP306614) (human, UniProt P32248 25-378, limits assumed); assay: ELISA, plate coated with 3.5 ug/ml recombinant CCR7 (Origene #TP306614), antibody in serial dilution, detection anti-hFc gamma-HRP, absorbance at 650 nm
T2 construct: Bought protein coated on ELISA plates; also called recombinant hCCR7
T2 sequence (looked up): T1 sequence
Protocol: Binding and affinity was also assessed in an ELISA-based assay using recombinant CCR7 (Origene #TP306614). Maxisorp™ 384-well plates (Thermo Nunc) were coated with 3.5 μg/ml of recombinant CCR7 diluted in PBS. After blocking with 3% BSA (bovine serum albumin) in PBS for 1 hr at room temperature, washing plates 3× with PBS-T (0.01% Tween 20 in PBS), primary antibodies were added in a serial dilution and incubated for 1 hr at room temperature.

Mouse CCR7 = biological target: T3, Mouse CCR7 (mouse, UniProt P47774 25-378); assay: FACS, NIH3T3 cell series and CD4+ T cells
T3 construct: On NIH3T3 cells or CD4+ T cells of CD-1 mice; also called NIH3T3.mouse CCR7
T3 sequence: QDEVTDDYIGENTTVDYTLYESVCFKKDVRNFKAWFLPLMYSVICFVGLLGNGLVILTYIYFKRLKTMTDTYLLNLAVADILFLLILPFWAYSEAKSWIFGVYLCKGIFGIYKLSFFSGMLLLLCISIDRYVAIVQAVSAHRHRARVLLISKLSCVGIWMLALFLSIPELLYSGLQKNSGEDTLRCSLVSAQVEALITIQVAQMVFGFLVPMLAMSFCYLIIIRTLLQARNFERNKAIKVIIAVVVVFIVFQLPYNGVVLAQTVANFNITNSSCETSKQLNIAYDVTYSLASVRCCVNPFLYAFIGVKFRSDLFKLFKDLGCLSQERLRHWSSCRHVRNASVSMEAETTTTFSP
Protocol: (§1) For this purpose, CCR7 positive cells were harvested (adherent cells were detached with Accutase), washed twice with FACS buffer (PBS/3% FCS/0.02% sodium azide) and diluted to approximately 2×10⁶ cells/ml in FACS buffer. All subsequent steps were done on ice to prevent internalization of the receptor. 100 μl cell suspension/well were transferred into 96-well U-bottom plates (Falcon). 2×10⁵ cells/well were incubated with a serial dilution of antibody concentrations of the anti-CCR7 antibody-of-interest ranging across several logs, starting at a high of 100 nM for 60 minutes at 4° C., gently shaking. Following incubation, cells were spun down (1200 rpm, 2 min, 4° C.) and washed three times with FACS buffer. A fluorophore-conjugated anti-hFc gamma-APC (Jackson ImmunoResearch) detection antibody was added at 1:400 and samples were incubated for 1 h on ice in the dark, gently shaken. After a final wash, cells were resuspended in 100 μl of FACS buffer containing 0.2 μg/ml DAPI followed by readout on the flow cytometry machine (BD LSRFortessa Cell Analyzer; Cat #647177). Mean fluorescence intensity (MFI) of live, single cells was calculated in Flowjo 10.0.8 and exported into Graphpad Prism6 for EC50 determination.

Rat CCR7 = biological target: T4, Rat CCR7 (rat, UniProt P47774 25-378 (mouse entry)); assay: FACS, NIH3T3 cell series and CD4+ T cells
T4 construct: On NIH3T3 cells or CD4+ T cells of Wistar rats; also called NIH3T3.rat CCR7
T4 chain: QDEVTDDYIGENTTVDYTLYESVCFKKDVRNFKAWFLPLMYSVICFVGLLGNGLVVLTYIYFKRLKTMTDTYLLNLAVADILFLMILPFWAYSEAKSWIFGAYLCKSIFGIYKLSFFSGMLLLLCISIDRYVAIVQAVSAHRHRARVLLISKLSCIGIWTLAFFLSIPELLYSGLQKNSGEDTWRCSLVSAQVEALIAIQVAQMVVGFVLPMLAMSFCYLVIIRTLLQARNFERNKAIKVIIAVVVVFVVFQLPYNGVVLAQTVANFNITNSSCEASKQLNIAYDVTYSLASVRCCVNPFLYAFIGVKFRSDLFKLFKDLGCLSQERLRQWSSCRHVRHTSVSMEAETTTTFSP
Protocol: as §1

EC50 (read off the curve) (Human CCR7 [1]): 2 to 3 nM
pHrodo (6 h MFI), uptake of pHrodo-labelled antibody at 5 ug/ml, CD4+ T cells (2000 receptors) (Human CCR7 [2]): 402 MFI
pHrodo (6 h MFI), uptake of pHrodo-labelled antibody at 5 ug/ml, CMLT1 cells (19583 receptors) (Human CCR7 [2]): 561 MFI
pHrodo (6 h MFI), uptake of pHrodo-labelled antibody at 5 ug/ml, DEL cells (110685 receptors) (Human CCR7 [2]): 3780 MFI
pHrodo (6 h MFI), uptake of pHrodo-labelled antibody at 5 ug/ml, JVM3 cells (8717 receptors) (Human CCR7 [2]): 146 MFI
pHrodo (6 h MFI), uptake of pHrodo-labelled antibody at 5 ug/ml, Jeko-1 cells (28852 receptors) (Human CCR7 [2]): 1390 MFI
pHrodo (6 h MFI), uptake of pHrodo-labelled antibody at 5 ug/ml, KE97 cells (152093 receptors) (Human CCR7 [2]): 4420 MFI
pHrodo (6 h MFI), uptake of pHrodo-labelled antibody at 5 ug/ml, L540 cells (167549 receptors) (Human CCR7 [2]): 11800 MFI
pHrodo (6 h MFI), uptake of pHrodo-labelled antibody at 5 ug/ml, L1236 cells (61602 receptors) (Human CCR7 [2]): 5820 MFI
pHrodo (6 h MFI), uptake of pHrodo-labelled antibody at 5 ug/ml, MJ cells (111121 receptors) (Human CCR7 [2]): 3260 MFI
pHrodo (6 h MFI), uptake of pHrodo-labelled antibody at 5 ug/ml, MOTN1 cells (84200 receptors) (Human CCR7 [2]): 2540 MFI
pHrodo (6 h MFI), uptake of pHrodo-labelled antibody at 5 ug/ml, Mec2 cells (50840 receptors) (Human CCR7 [2]): 3000 MFI
B1: 674J13 (Humanized, CysMab DAPA) (antibody, human IgG1, kappa, V domains shown)
VH: DVQLQESGPGLVKPSQTLSLTCTVSGYSITSGYSWHWIRQHPGKGLEWMAHIHSSGSTNYNPSLKSRITISRDTSKNQFSLKLSSVTAADTAVYYCARGGVQAFAYWGQGTLVTVSS
VL: EIVLTQSPATLSASPGERVTMSCSASSSVIYMHWYQQKPGQAPRRWIYDTSKLASGVPARFSGSGSGTDYTLTISSMEPEDAAVYYCQQWSSNPLTFGQGTKLEIKR
notes: Human IgG1 kappa, E152C/S375C, D265A/P329A; In the pHrodo assay it carried maleimide-pHrodo (DAR 4); also called 674J13.CysMab.DAPA; 674J13.DAPA

EC50 (read off the curve) [3]: ~0.7 nM
pHrodo (6 h MFI), uptake of pHrodo-labelled antibody at 5 ug/ml, CD4+ T cells (2000 receptors) (Human CCR7 [2]): 278 MFI
pHrodo (6 h MFI), uptake of pHrodo-labelled antibody at 5 ug/ml, CMLT1 cells (19583 receptors) (Human CCR7 [2]): 301 MFI
pHrodo (6 h MFI), uptake of pHrodo-labelled antibody at 5 ug/ml, DEL cells (110685 receptors) (Human CCR7 [2]): 1910 MFI
pHrodo (6 h MFI), uptake of pHrodo-labelled antibody at 5 ug/ml, JVM3 cells (8717 receptors) (Human CCR7 [2]): 148 MFI
pHrodo (6 h MFI), uptake of pHrodo-labelled antibody at 5 ug/ml, Jeko-1 cells (28852 receptors) (Human CCR7 [2]): 450 MFI
pHrodo (6 h MFI), uptake of pHrodo-labelled antibody at 5 ug/ml, KE97 cells (152093 receptors) (Human CCR7 [2]): 1570 MFI
pHrodo (6 h MFI), uptake of pHrodo-labelled antibody at 5 ug/ml, L540 cells (167549 receptors) (Human CCR7 [2]): 6840 MFI
pHrodo (6 h MFI), uptake of pHrodo-labelled antibody at 5 ug/ml, L1236 cells (61602 receptors) (Human CCR7 [2]): 1240 MFI
pHrodo (6 h MFI), uptake of pHrodo-labelled antibody at 5 ug/ml, MJ cells (111121 receptors) (Human CCR7 [2]): 1650 MFI
pHrodo (6 h MFI), uptake of pHrodo-labelled antibody at 5 ug/ml, MOTN1 cells (84200 receptors) (Human CCR7 [2]): 1030 MFI
pHrodo (6 h MFI), uptake of pHrodo-labelled antibody at 5 ug/ml, Mec2 cells (50840 receptors) (Human CCR7 [2]): 1340 MFI
B2: 121G12 (Humanized CysMab, DAPA) (antibody, human IgG1, kappa)
heavy: EVQLVESGGGLVKPGGSLRLSCAASGFTFSTYAMSWVRQAPGKGLEWVATISDAGSYSYYPDNVKGRFTISRDNAKNSLYLQMNSLRAEDTAVYYCARRGSRYEEYYVMDYWGQGTTVTVSSASTKGPSVFPLAPSSKSTSGGTAALGCLVKDYFPCPVTVSWNSGALTSGVHTFPAVLQSSGLYSLSSVVTVPSSSLGTQTYICNVNHKPSNTKVDKRVEPKSCDKTHTCPPCPAPELLGGPSVFLFPPKPKDTLMISRTPEVTCVVVAVSHEDPEVKFNWYVDGVEVHNAKTKPREEQYNSTYRVVSVLTVLHQDWLNGKEYKCKVSNKALAAPIEKTISKAKGQPREPQVYTLPPSREEMTKNQVSLTCLVKGFYPCDIAVEWESNGQPENNYKTTPPVLDSDGSFFLYSKLTVDKSRWQQGNVFSCSVMHEALHNHYTQKSLSLSPGK
light: EIVLTQSPATLSVSPGERVTLSCRASQSISNNLHWYQQKPGQAPRLLIKYASQSISGIPARFSGSGSGTDFTLTISSVEPEDFGVYFCQQSSSWLTFGQGTKLEIKRTVAAPSVFIFPPSDEQLKSGTASVVCLLNNFYPREAKVQWKVDNALQSGNSQESVTEQDSKDSTYSLSSTLTLSKADYEKHKVYACEVTHQGLSSPVTKSFNRGEC
notes: Human IgG1 kappa, E152C/S375C, D265A/P329A; In the pHrodo assay it carried maleimide-pHrodo (DAR 4); also called 121G12.CysMab.DAPA; 121G12.DAPA

binding result (Mouse CCR7): no binding
binding result (Rat CCR7): no binding
B3: 121G12 humanized CysMab (Fc Wild Type) (antibody, human IgG1, V domains shown)
VH: EVQLVESGGGLVKPGGSLRLSCAASGFTFSTYAMSWVRQAPGKGLEWVATISDAGSYSYYPDNVKGRFTISRDNAKNSLYLQMNSLRAEDTAVYYCARRGSRYEEYYVMDYWGQGTTVTVSS
VL: EIVLTQSPATLSVSPGERVTLSCRASQSISNNLHWYQQKPGQAPRLLIKYASQSISGIPARFSGSGSGTDFTLTISSVEPEDFGVYFCQQSSSWLTFGQGTKLEIK
notes: Human IgG1 kappa with E152C/S375C (CysMab) and wild type Fc
